Substitutions are numbered along the chain they refer to. In names and notes the source's numbering stands.
Test system: tet operator sequence
Assay: β-galactosidase activity of a tetracycline-regulated promoter in transformed E. coli with revTetR, in the presence and absence of anhydrotetracycline (atc)
Assay type: cell-based, Escherichia coli
Conditions: for β-Galactosidase Activity, Cultured Without ATC: RevTetR isolate cultured in the absence of anhydrotetracycline (ATC); for β-Galactosidase Activity, Cultured With ATC: RevTetR isolate cultured in the presence of anhydrotetracycline (ATC)
Method in brief: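 TetR(BD) chimera mutants (TetR(B) residues 1–50, TetR(D) 51–208) expressed in E. coli regulating a tet operator-controlled lacZ. β-Galactosidase measured in Miller units at 28 °C and 37 °C with and without anhydrotetracycline; reported as percent of maximal expression without Tet repressor.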

B1: TetRrev25/43: revTetR(BD) L17F E19- G24G (protein)
chain: MSRLDKSKVINSALELFNVGIEGLTTRKLAQKLGVEQPTLYWHVKNKRALLDALAVEILARHHDYSLPAAGESWQSFLRNNAMSFRRALLRYRDGAKVHLGTRPDEKQYDTVETQLRFMTENGFSLRDGLYAISAVSHFTLGAVLEQQEHTAALTDRPAAPDENLPPLLREALQIMDSDDGEQAFLHGLESLIRGFEVQLTALLQIV
modifications: Modified tetracycline repressor
notes: revTetR(BD) L17F E19- G24G
β-Galactosidase Activity, Cultured Without ATC: 99.1241
β-Galactosidase Activity, Cultured With ATC: 1.7535

B2: TetRrev4/6-6: revTetR(BD) D53Y V57V A61P (protein)
chain: MSRLDKSKVINSALELLNEVGIEGLTTRKLAQKLGVEQPTLYWHVKNKRALLYALAVEILPRHHDYSLPAAGESWQSFLRNNAMSFRRALLRYRDGAKVHLGTRPDEKQYDTVETQLRFMTENGFSLRDGLYAISAVSHFTLGAVLEQQEHTAALTDRPAAPDENLPPLLREALQIMDSDDGEQAFLHGLESLIRGFEVQLTALLQIV
modifications: Modified tetracycline repressor
notes: revTetR(BD) D53Y V57V A61P
β-Galactosidase Activity, Cultured Without ATC: 67.879
β-Galactosidase Activity, Cultured With ATC: 3.197

B3: TetRrev19/48: revTetR(BD) N18K E19D V20L I22N E23A (protein)
chain: B2 chain with N18K, E19D, V20L, I22N, E23A, Y53D, P61A
modifications: Modified tetracycline repressor
notes: revTetR(BD) N18K E19D V20L I22N E23A
β-Galactosidase Activity, Cultured Without ATC: 79.9581
β-Galactosidase Activity, Cultured With ATC: 1.1143

B4: TetRrev4/6-27: revTetR(BD) V99R (protein)
chain: B2 chain with Y53D, P61A, V99R
modifications: Modified tetracycline repressor
notes: revTetR(BD) V99R
β-Galactosidase Activity, Cultured Without ATC: 108
β-Galactosidase Activity, Cultured With ATC: 49

B5: TetRrev28/30: revTetR(BD) V20G G21A I22I E23G (protein)
chain: B2 chain with V20G, G21A, E23G, Y53D, P61A
modifications: Modified tetracycline repressor
notes: revTetR(BD) V20G G21A I22I E23G
β-Galactosidase Activity, Cultured Without ATC: 55.1783
β-Galactosidase Activity, Cultured With ATC: 3.7384

B6: TetRrev28/8: revTetR(BD) L14S N18Y I22F L25L (protein)
chain: B2 chain with L14S, N18Y, I22F, Y53D, P61A
modifications: Modified tetracycline repressor
notes: revTetR(BD) L14S N18Y I22F L25L
β-Galactosidase Activity, Cultured Without ATC: 98.6289
β-Galactosidase Activity, Cultured With ATC: 4.4123

B7: TetRrev28/26: revTetR(BD) L14T N18Y G21G I22F (protein)
chain: B2 chain with L14T, N18Y, I22F, Y53D, P61A
modifications: Modified tetracycline repressor
notes: revTetR(BD) L14T N18Y G21G I22F
β-Galactosidase Activity, Cultured Without ATC: 89.3918
β-Galactosidase Activity, Cultured With ATC: 3.8006

B8: TetRrev28/16: revTetR(BD) L14L E15A L17G L25V (protein)
chain: B2 chain with E15A, L17G, L25V, Y53D, P61A
modifications: Modified tetracycline repressor
notes: revTetR(BD) L14L E15A L17G L25V
β-Galactosidase Activity, Cultured Without ATC: 96.3269
β-Galactosidase Activity, Cultured With ATC: 0.9453

B9: TetRrev22/5: revTetR(BD) E15V L17A E19D (protein)
chain: B2 chain with E15V, L17A, E19D, Y53D, P61A
modifications: Modified tetracycline repressor
notes: revTetR(BD) E15V L17A E19D
β-Galactosidase Activity, Cultured Without ATC: 92.312
β-Galactosidase Activity, Cultured With ATC: 0.9755

B10: TetRrev4/6-15: revTetR(BD) A56S I59A L60W V99V (protein)
chain: B2 chain with Y53D, A56S, I59A, L60W, P61A
modifications: Modified tetracycline repressor
notes: revTetR(BD) A56S I59A L60W V99V
β-Galactosidase Activity, Cultured Without ATC: 66.054
β-Galactosidase Activity, Cultured With ATC: 7.647

B11: TetRrev4/6-25: revTetR(BD) I59S L60L R62G D95A V99L (protein)
chain: B2 chain with Y53D, I59S, P61A, R62G, D95A, V99L
modifications: Modified tetracycline repressor
notes: revTetR(BD) I59S L60L R62G D95A V99L
β-Galactosidase Activity, Cultured Without ATC: 102.926
β-Galactosidase Activity, Cultured With ATC: 3.433

B12: TetRrev4/6-24: revTetR(BD) A61T V99R (protein)
chain: B2 chain with Y53D, P61T, V99R
modifications: Modified tetracycline repressor
notes: revTetR(BD) A61T V99R
β-Galactosidase Activity, Cultured Without ATC: 95.596
β-Galactosidase Activity, Cultured With ATC: 2.428

B13: TetRrev4/6-17: revTetR(BD) G99R V99L L101I (protein)
chain: B2 chain with Y53D, P61A, G96R, V99L, L101I
modifications: Modified tetracycline repressor
notes: revTetR(BD) G99R V99L L101I
β-Galactosidase Activity, Cultured Without ATC: 54.403
β-Galactosidase Activity, Cultured With ATC: 2.601

B14: TetRrev4/6-7: revTetR(BD) L55L L60V A97V V99G (protein)
chain: B2 chain with Y53D, L60V, P61A, A97V, V99G
modifications: Modified tetracycline repressor
notes: revTetR(BD) L55L L60V A97V V99G
β-Galactosidase Activity, Cultured Without ATC: 86.036
β-Galactosidase Activity, Cultured With ATC: 2.151

B15: TetRrev28/23: revTetR(BD) A13A L14S N18K E23V (protein)
chain: B2 chain with L14S, N18K, E23V, Y53D, P61A
modifications: Modified tetracycline repressor
notes: revTetR(BD) A13A L14S N18K E23V
β-Galactosidase Activity, Cultured Without ATC: 92.2055
β-Galactosidase Activity, Cultured With ATC: 2.9867

B16: TetRrev1/34: revTetR(BD) L17S E23K (protein)
chain: B2 chain with L17S, E23K, Y53D, P61A
modifications: Modified tetracycline repressor
notes: revTetR(BD) L17S E23K
β-Galactosidase Activity, Cultured Without ATC: 79.3141
β-Galactosidase Activity, Cultured With ATC: 0.9226

B17: TetRrev4/6-10: revTetR(BD) A56S V99E (protein)
chain: B2 chain with Y53D, A56S, P61A, V99E
modifications: Modified tetracycline repressor
notes: revTetR(BD) A56S V99E
β-Galactosidase Activity, Cultured Without ATC: 97.964
β-Galactosidase Activity, Cultured With ATC: 6.149

B18: TetRrev3/38: revTetR(BD) L17H I22F E23G (protein)
chain: B2 chain with L17H, I22F, E23G, Y53D, P61A
modifications: Modified tetracycline repressor
notes: revTetR(BD) L17H I22F E23G
β-Galactosidase Activity, Cultured Without ATC: 97.043
β-Galactosidase Activity, Cultured With ATC: 1.8287

B19: TetRrev28/27: revTetR(BD) L17G I22M (protein)
chain: B2 chain with L17G, I22M, Y53D, P61A
modifications: Modified tetracycline repressor
notes: revTetR(BD) L17G I22M
β-Galactosidase Activity, Cultured Without ATC: 95.0152
β-Galactosidase Activity, Cultured With ATC: 1.6907
